Test results: the DeepSol protein solubility set

Assay: soluble on expression in E. coli; label from the status in PepcDB or PDB records

Sequence	soluble on expression in E. coli
HHYVKGELKIAASFTIGEYILPPLLAQLQKLYPELNLDVMIGNTEEVSERVRMLQADIGLIEGHTNENELEIEPFMEDEMCIAAPNQHPLAGRKEISISDLQNEAWVTREKGSGTREYLDHVLSSNGLRPKSMFTISSNQGVK	not soluble
MDLFDLIFPPPPQSPSKLHPTQNHILPPEPLNRDFGDTRKNHKKAQPRRTTKAPSTSSPTIHDRQTPPRPTTPKSPTEKLLPIYHKFADGTEVVNPAAYAQRGFGWVKQNNTARVSWAKWAQSTKKCDDDIYGLKWIEERYPNWRDSNFRIRERRRSRSRSPQLSDNGSEDISIYLGRANSSSPNPTATGSETSYGSPTDAIYIPRNY	not soluble
MTGFAPQAGLPSHSVQVADHFDGNSPRGSPMSSGGHPVDRNRGLQPQKEAFSGPAAGKPFHPQALSKYSRHYSPEDELSAEAQPIAAYKIVSQSNKQLLAGSVSVTSLSSRTTELATADPFALAPFPSKAGKQKP	soluble
MGSDKIHHHHHHMPTGNELPINEGASALQMANTIFGPGVTVNTASYTGWSQSSGIYTNGDSVAPGVTPSDTGVILSTGRASHITQSNGDPNRSDSTSTNTPGPSNDPDFNAIAGFVGSNDASFLEVNFTPTTDVLTMQFTFASEEYPEYTGSVFNDIFGVWVNGALVASPVVNVTQINSVNQSENATLFNNNTDDDYNTEMDGFTVTLTLVMPVNINQPNDIKIGVADVADSAYDSNVLIAAGSIQGEFVAESDSITHLEGLTSVLDVLANDPTSGGIAFITHINGVEVNPGDSVTLSDGTIVTLLPSGELQIDPPATQTGLTSSETIHFTYTVDNGSGITDTAFVTVTAIPCFARGTMILTAHGEKPVETLVPGDRIATRDNGLQEIRWIGTRKVAAEGRFAPIAIEAGTFGMHRRLVVSPQHRVMLTHWMAEVMFGEDEVLVAAKDLVNDCSVRVLGPGDFDDGEVEYFHLLFDQHQIIFSDGLATESFLPGPTVMNDLDAAVQEEVLALFPDIDPDTKDGYGPAARLPLRAFEARAMLA	not soluble
MAHHHHHHMGGVTLHKVNTCPWWQRKNYEIEKSFFLRSAPPPLRKKRNQLRQYNHAENNSYTNIYTIKNPLKCKVVDKVSLVRQNALHEVYNVEIDHGGMFKYLEGHSCGVIPYYEDLIQADDKNNSQEGRKKRGNKFARLYSISSTNAENLSFAIRIHSYQEEENGCMQHKYGYCSGYIKELKKNDNIYITGAHGCFLLPDNVSEKNTNLILIATGTGISPYISFLKKIWGYQPGIHQQKKTYNGQVYLYYGVYYEDSILYLPELKYFQNMYPNNFHVEYVFSSIKNSDGTSHHVQDEIYKKRENFLRLFNELNCELYICGHKSIRAKIMDILKGENPVLDSEKKKRVHVEVY	not soluble
GMEKLNFGIPEWAFEFHGHKCPYMPMGYRAGSYALKIAGLEKEKDHRTYLLSEMSPEDMNGCFNDGAQAATGCTYGKGLFSLLGYGKLALILYRPGRKAIRVHVRNSFMDELSTRASDFFRYRKQGYEPSEIPAGAIDPVLEWISSLEDEEIFEYREIDGFTFEPVKKNGAKVRCDVCGEYTYEADAKLLNGKPVCKPDYYGKK	soluble
GYCGPCPNNWICHRNNCYQFFNEEKTWNQSQASCLSQNSSLLKIYSKEEQDFLKLVKSYHWMGLVQIPANGSWQWEDGSSLSYNQLTLVEIPKGSCAVYGSSFKAYTEDCANLNTYICMKRAV	soluble
MIMKANIFNIQRFSIHDGPGIRTVVFFKGCPLRCPWCSNPESQHRPPQILWDKKKCFYGHLCEVKCPAGCLNFENNNLVFSADNCTGCKSCITQCPGKALTFVGNMMELDEVMEEVLKDMDFYQESKGGVTLSGGEVLVQPDFAAALLKKCKENGIHTALETTAFSTPLVFSKVLANTDLLLLDIKHYNDREHIKYTGVSNQSILENLDFAVTMKVPVVARIPVIPSVNNTIQDAKEFVKLLKEHRVDTVNLLPFHQFGEKKYEELQVPYQLKDVKALRPEDMTEYYNVFKNAGLNVSM	not soluble
DIHQEMDREELELEEVDLYRMNSQDKLGLTVCYRTDDEDDIGIYISEIDPNSIAAKDGRIREGDRIIQINGIEVQNREEAVALLTSEENKNFSLLIARPELQLDEGWMDDD	soluble
MGSDKIHHHHHHMVVNALAVGCGLNVAPAQAHKFASNYHCFMVRRFDRTNAGRRLHFASAMTLTRHQDGEDASTGVSYLELADVLIRHGAQTNTDLKELWSRIVFNILVSNTDDHLRNHGYILIPGKGWRLSEAYDLNPVARSDGLKLNITENDNALDLELAREVAEYFRLGLTEADDIIANFRGIVSQWRIIAERLRLPGREQELMAEAFRGAI	not soluble
MGSDKIHHHHHHMRRLNRKNNEALKKLNDRQRKVLYCIVREYIENKKPVSSQRVLEVSNIEFSSATIRNDMKKLEYLGYIYQPHTSAGRIPTDKGLRFYYEEMLKISKETSEADLAVETFKSMPLADPEKVLFLAGNLLARLTEGYVLIERPNTRDLKILRVMLIPVSEDYLIFSILTEFGVSKVTPIKTQERLNWEEIERQLNFLLRGRTVGEVLMGKIESLKGSGFLRLIESLIGETVERYLDAGLENLLKDETLTLEDIRNLLEEVKDQKFLESLVGEGITVRIGREIGRKKLEKFAVFSGKYFKGESPIGSVYLFTSKVTKYDRNHRVFEYILNRLSEYFTSTSRR	not soluble
MDQTVLDSAFNSPVDSGIAGTTTGSGSTTHFGVGTNFKVSVRSSSRSTDGTDSTDGANSDNVTGSTGSTPAHHSITNLNMALSQHSIDSATAASSTNPFPHFNQADLLNFHQNSLLPHHMFSQFGRYPQFEQKPDVGVLQQQMQMREAKPYKCTQCVKAFANSSYLSQHMRIHLGIKPFGPCNYCGKKFTQLSHLQQHIRTHTGEKPYKCKFTGCDKAFSQLSNLQSHSRCHQTDKPFKCNSCYKCFTDEQSLLDHIPKHKESKHLKIHICPFCGKSYTQQTYLQKHMTKHADRSKASNFGNDVVPADPFDPSLLSWNPMQGMGDNAHDSSSFNISSLTDQFAANTMIGSQSTNYNPAFQNSAFSQLFNIRNNRYLSEYPTSTKNGERAPGFNMITPLENIQRYNGSSSSATAVVTATGSAVVSSTPSSTSSSSAGSSSSQGGVFNPQSLINNMKNHSY	not soluble
MPLFAGFSPRSGQGDLAEFVDIINGARRDLLFVTAFALPDSILDALLGQPHDDVLRYGLQNTASRITGFHADRTAEFAATALLNNGLEGWLKEGLKGQKGNLLVHTKAIVTDFTSEAPVIISGSHNLSVGASQSNDENFLIIRGDIDLEHHHHHH	soluble
SLAMAAGANVPLDKANVDLTDKASLQNGAKLFMNYCFACHSTQYQRYERVATDLDIPADLMKENLIFNPEAKIGDLMVNAMPPKQAANWFGAPPPDLTLVARVRGADWLYTYLRSFYVDPSRPFGVNNIVFPSVGMPHVLEELQGIPTPVYGTKMVDGEEVKVVVGTETNGTGELSEGEYDKAVGDLVNFLVYAGDP	not soluble
MGSDKIHHHHHHEPYSEIIEEDYVPTEADEIALLATTYSQLRFVMDWYGLFDLQEESGDVIVTPTRPNGWDDGGTYKQMHKHTWDNQQGQPQSIWDYCYKGIANANKILKRADEGFFTEESKPKVVAEVKGVRALWYSILCDTHGNIPIQTSFSEEVPVQSTRKQVFDFIINELKEVMPNLPTEVNKSTYGRLTQWGAKCLMARMYLNAGVYTGTPMWNECLEQCNDIINSGLFSLETNYTDIFKTENSGCVETIFAIPYDEVYNEGDNNGPVFGAHMKFLSSNSRKVFNMQTTPWGGSAANPQFINSYDPDDMRLKYTWLQGDQYSPDGVLITTFPNKLPSIYKTDTDDGYRVGKYEIKVGAKSLLSNDFPYFRYTEVLLMKAECLLRLGQNETEAAHIVSQIRERAFRESAHPEKATVDAAWLKGDTHINYGTLDEKGQIDDAGNTEVVELGGLYDEWGWEFAAEARRRTDMIRFGTYQKKSWFNHTPTANDLNGNSILFPIHLDHLNTNPNLQQNPGYAGK	not soluble
MSERMWGFGLTEEEASRSIREKMSINDSPTHGHDIHVTRDLVKHHLSKSDMLTDPSQEVLEERTRIQFIRWSHTRIFQVPSEVMDDVMQERIDQVRRSVSHLMCDSYNDPSFRTSCSEC	not soluble
MVNLTRIYTRTGDKGTTALGDMSRVPKTDLRISAYADANEANAVIGTAIALGGLPEEVVKVLVRVQNDLFDVGADLSTPVVENPEYPPLRVEQFYVDKLEADCDRYLAEVEKLRSFILPGGTAGAALLHQACTVVRRAERSTWAALEAHGETMNPLTATYLNRLSDLLFILARVANKEVGDVLWVPGGERLEHHHHHH	soluble
MKLVTGFARIRKPSRPIEFGRWPNRSMSVRVPGAMPLASMNLAVGQSVRIGQRPNSSPSSLPNISFAKIRRWPSRRWLRHQGLHGPIDFGRWPNETMSIRVPGAMPLASMKLAVGQSTALAKGQTQHSQRATPLVLQRTTHTLANGQMQPIITPKRIVHQTRSHIVGGSRDIRLGMSLPGDAPAGSRCRQRRFHDALGRPKRSRTLVANRTCPGWDVASSQTWTSPAWPSPQSPSPDGFGSCQTNKDLTSRGCGG	not soluble
MINPIASLSPLDGRYAQSVEALRPIFSEYGLMKARVKVELNWLKALAAEPKIAEVPPFSAETLAEIDTVIENFSLEDAAAVKAIEATTNHDVKAIEYWLKKRFAEVPEVAAVSEFIHFACTSEDINNLSHALMLQEAREAVLLPKLAEIIEKLTAMAHDLAAVPMMSRTHGQPATPTTLGKETANVVYRLQRQFKNLQAQEFLGKINGAVGNYNAHMVAYPDVDWETHCRNFVEISLGLTFNPYTIQIEPHDYMAEFFQTLSRINTILIDFNRDVWGYISLGYFKQKVKAGEVGSSTMPHKVNPIDFENSEGNLGMANAVLGFLSEKLPISRWQRDLTDSTVLRNMGVGVGYAVLGFAAHLRGLNKLEPNPAALAADLDATWELLAEPIQTVMRRYGVANPYEKLKDLTRGKGGITPEVLKGFIGLLEIPAEAKAKLLELTPALYVGKAEALAKRI	not soluble
MIPLVAPRSVIERVEAICREAGGILRVAPYRRLQVGLITTGSEVYKGRIKDAFGPVVRAKIASYGSEVALEKVVPDDAAAIHDAIEEMLAAGMQMVVLTGGMSVDPDDVTPDGIRRSGAEVVTYGAPVLPGAMFMLAYRGDVPIMGLPGCVMYYRATVFDLVLPRILVGERLEHHHHHH	not soluble
MSKTHPPELKKYMDKEMDLKLNGNRRVSGILRGFDPFMNMVIDEAVEYQKDGGSVNLGMTVIRGNSVVIMEPKERIS	not soluble
MSLTVFKSPITGRTYHLVFNDEFDDGVIDTLKWDTRSRRSPFTRRGMYQEKPYYVLCHEDWTKELHGELRLEVSKYPTQNNVVMTGGILSLGRFMARYGYYETKASFRDCIGEGYWPAFWIHFDEADKYGKGTEIDVFEYIPKDKQIFQTLHWYKKQAMEEQQSEVQHAALDYDKSGQFKEHRSSTKYFVLDEAQSKEHTFAVEWTPEELIFYTDGKVTRRVNRKDDPKQVPSAYQMVYFSCSAGEWGGNVMENQVPAYVYFDYCRCYQESDQDAIYTVKGNGMKVPASRRVGKEGHHHHHH	not soluble
MSLRQLLQKRAMQSPNLEALVGGKKRYSFQQYNERVNQLAHYLLHNGVQRGDRIGILCKNNHPFPSVMMASLKIGAVFIPLNHQLTVYELETIVKEAKLKVLVIDEEFSEVLLNVDAVKEIPYVIQTTKEGFGSFELELQKQPTTEPNVEVHEEDDAIYLFTSGTTGQAKACVIGHKNLHHYFAEIAGQREIPAGERFLSVHPLFHMSGVLSILNCIYHGVTMIFLADSNPAIIWDKIEEEKITTMLAFPAVYSYMLDELNKKERNISTFKVAQSGGTKVPETLIQKYMEKGIYMVQGYGSTEGWVVTSWHPMMGKEKMSSVGKTLKNVEVKIVHPETGHELTTNEVGEIHVKSPYMFKGYWNNEKATKKVVKDNWFNMGDAGMIDDDGFLHIMGRYKDVIIRGGDNVYPDQVEDVIHEIQGVLEVAVVGVPDDFWGEVPRAYIVKDGETTLTEESIIQYCKEKLASYKIPEVVFIDELPKNALGKVLKRELRDVVLVKEGHHHHHH	soluble
